# Test results as given in IntAct's records for PubMed 25281559.
# B1: Casein kinase I homolog HRR25 (Saccharomyces cerevisiae), P29295 (parent)
# chain: MDLRVGRKFRIGRKIGSGSFGDIYHGTNLISGEEVAIKLESIRSRHPQLDYESRVYRYLSGGVGIPFIRWFGREGEYNAMVIDLLGPSLEDLFNYCHRRFSFKTVIMLALQMFCRIQYIHGRSFIHRDIKPDNFLMGVGRRGSTVHVIDFGLSKKYRDFNTHRHIPYRENKSLTGTARYASVNTHLGIEQSRRDDLESLGYVLIYFCKGSLPWQGLKATTKKQKYDRIMEKKLNVSVETLCSGLPLEFQEYMAYCKNLKFDEKPDYLFLARLFKDLSIKLEYHNDHLFDWTMLRYTKAMVEKQRDLLIEKGDLNANSNAASASNSTDNKSETFNKIKLLAMKKFPTHFHYYKNEDKHNPSPEEIKQQTILNNNAASSLPEELLNALDKGMENLRQQQPQQQVQSSQPQPQPQQLQQQPNGQRPNYYPEPLLQQQQRDSQEQQQQVPMATTRATQYPPQINSNNFNTNQASVPPQMRSNPQQPPQDKPAGQSIWL
# partner: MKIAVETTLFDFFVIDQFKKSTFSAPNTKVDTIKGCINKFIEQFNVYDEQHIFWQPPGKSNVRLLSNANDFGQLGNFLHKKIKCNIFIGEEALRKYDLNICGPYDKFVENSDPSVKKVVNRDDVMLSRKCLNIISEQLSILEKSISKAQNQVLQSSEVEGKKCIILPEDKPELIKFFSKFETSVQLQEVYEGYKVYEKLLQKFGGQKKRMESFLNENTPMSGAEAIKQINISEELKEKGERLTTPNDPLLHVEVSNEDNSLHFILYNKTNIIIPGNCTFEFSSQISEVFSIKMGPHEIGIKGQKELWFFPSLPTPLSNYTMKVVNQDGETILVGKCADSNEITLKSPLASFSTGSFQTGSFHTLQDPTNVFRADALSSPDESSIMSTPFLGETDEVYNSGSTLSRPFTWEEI
# Variants of: B1
# Conditions: with atg34_yeast ATG34, Q12292
row,Variant,effect of a mutation on the interaction
1,MDLRVGRKFRIGRKIGSGSFGDIYHGTNLISGEEVAIALESIRSRHPQLDYESRVYRYLSGGVGIPFIRWFGREGEYNAMVIDLLGPSLEDLFNYCHRRFSFKTVIMLALQMFCRIQYIHGRSFIHRDIKPDNFLMGVGRRGSTVHVIDFGLSKKYRDFNTHRHIPYRENKSLTGTARYASVNTHLGIEQSRRDDLESLGYVLIYFCKGSLPWQGLKATTKKQKYDRIMEKKLNVSVETLCSGLPLEFQEYMAYCKNLKFDEKPDYLFLARLFKDLSIKLEYHNDHLFDWTMLRYTKAMVEKQRDLLIEKGDLNANSNAASASNSTDNKSETFNKIKLLAMKKFPTHFHYYKNEDKHNPSPEEIKQQTILNNNAASSLPEELLNALDKGMENLRQQQPQQQVQSSQPQPQPQQLQQQPNGQRPNYYPEPLLQQQQRDSQEQQQQVPMATTRATQYPPQINSNNFNTNQASVPPQMRSNPQQPPQDKPAGQSIWL [K38A],disrupting interaction
